Experimental data reported in patent US20140105900A1 (Amgen, published 2014).

B1: 34H7 (antibody, V domains shown)
VH: EVQLVQSGAELKKPGESLKISCKGSGYRFTSYWIGWVRQMPGKGLEWMGIIYPGDSDTRYSPSFQGQVTISADKSISTAYLQWHSLKVSDTAMYYCASPGYSTRWYHFDYWGQGTLVTVSS
VL: EIVMTQSPATLSVSPGERATLSCRASQSISSSLVWYQQKPGQAPRLLIYGASTRATGIPARFSGSGSGTEFSLTISSLQSEDFAVYYCQQYNNWPLLTFGPGTKVDIKR
notes: Fully human antibody from XenoMouse, subcloned as a full IgG construct; also called anti-IL-21 receptor antibody 34H7; IL-21R mAb 34H7
B2: 29G8 (antibody, V domains shown)
VH: QVQLVESGGGVVQPGRSLRLSCAASGFTFSSYGMHWVRQAPGKGLEWVAVIWYDGSNKYYVDSVKGRFTISRDNSKNTLYLQMNSLRAEDTAVYYCARDRGYYDSGSYYMDYWGQGSLVTVSS
VL: DIQMTQSPSSVSASVGDRVTITCRASQGISTWLAWYQQKPGKAPKLLIYAASILQRGVPSRFSGSGSGTDFTLTISSLQPEDFTTYYCQQANSFPRTFGQGTKVEIKR
notes: Fully human antibody from XenoMouse, subcloned as a full IgG construct; also called anti-IL-21 receptor antibody 29G8; IL-21R mAb 29G8
B3: 30G3 (antibody, V domains shown)
VH: QVQLQESGPGLVKPSETLSLTCTVSGGSISSYYWSWIRQPAGKGLEWIGRIYTSGSTYFNPSLKSRVTMSVDTSKNQFSLKLSSVTAADTAVYYCARGRELLDYWGQGTLVTVSS
VL: EVVLTQSPGTLSLSPGERATLSCRASQSFSSSYLAWYQQKPGQAPRLLIFGASSRATGIPDRFSGSGSGTDFTLTINRLEPEDFALYYCQQYGRSPLTFGGGTKVEIKR
notes: Fully human antibody from XenoMouse; also called anti-IL-21 receptor antibody 30G3; IL-21R mAb 30G3

Columns and labels:
[1] = target: T1, human IL-21 receptor on cells (human, UniProt Q9HBE5 20-538); test: cell-based or functional assay
T1 sequence (Q9HBE5 20-538 limits assumed): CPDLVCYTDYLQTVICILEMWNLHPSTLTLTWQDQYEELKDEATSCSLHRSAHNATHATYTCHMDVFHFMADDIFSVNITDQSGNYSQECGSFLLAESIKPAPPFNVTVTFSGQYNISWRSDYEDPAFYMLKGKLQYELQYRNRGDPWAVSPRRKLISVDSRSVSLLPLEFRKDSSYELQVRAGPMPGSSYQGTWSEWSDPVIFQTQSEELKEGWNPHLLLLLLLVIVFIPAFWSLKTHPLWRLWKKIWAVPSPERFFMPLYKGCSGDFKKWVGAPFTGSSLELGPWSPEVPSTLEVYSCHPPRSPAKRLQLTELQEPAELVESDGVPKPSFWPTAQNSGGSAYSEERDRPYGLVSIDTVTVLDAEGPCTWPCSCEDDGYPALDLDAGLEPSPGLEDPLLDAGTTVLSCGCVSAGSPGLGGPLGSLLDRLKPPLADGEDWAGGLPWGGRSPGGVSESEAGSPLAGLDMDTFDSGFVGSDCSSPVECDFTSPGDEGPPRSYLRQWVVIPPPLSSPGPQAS

[2] = target: cynomolgus IL-21 receptor on cells (cynomolgus monkey, UniProt G7Q0S8 41-559); test: cell-based or functional assay
[3] = target: T2, recombinant human IL-21 receptor (human, UniProt Q9HBE5 20-232); test: KinExA, recombinant human IL-21R
T2 construct: Used in Biacore and KinExA ('recombinant IL-21R', column 'hu'); also called recombinant IL-21R; hu IL-21R
T2 sequence (Q9HBE5 20-232 limits assumed): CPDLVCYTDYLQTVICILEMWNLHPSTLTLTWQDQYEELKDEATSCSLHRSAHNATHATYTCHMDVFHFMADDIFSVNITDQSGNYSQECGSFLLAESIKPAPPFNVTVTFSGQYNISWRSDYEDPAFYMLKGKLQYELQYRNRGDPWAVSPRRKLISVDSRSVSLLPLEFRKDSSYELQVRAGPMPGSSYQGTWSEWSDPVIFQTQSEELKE

[4] = target: T3, recombinant cynomolgus IL-21 receptor (cynomolgus monkey, UniProt G7Q0S8 41-253); test: Biacore, recombinant cyno IL-21R
T3 construct: construct not described; also called cyno IL-21R

[5] = target: T2, recombinant human IL-21 receptor; test: Biacore, recombinant human IL-21R
[6] = target: T1, human IL-21 receptor on cells; test: flow cytometry on Ramos cells, antibody titration, anti-huIgG detection
Description: Assay protocols ¹B/T co-culture. Mitomicin C-treated human T cells were cultured with B cells in anti-CD3 antibody pre-coated 96-well plates as described in Kuchen et al. (2007) J Immunol 179: 5886, incorporated herein by reference in its entirety. Supernatants were collected for IgA ELISA on day 6. ²B cell IgA production. Negatively selected human peripheral blood B cells were cultured in vitro with IL-21 and CD40L. On day 6, supernatants were collected for human IgG ELISA analysis. ³CD8 IFN-γ production. Purified human CD8 T cells were cultured with IL-21. IFN-γ was measured in the supernatant on day 3. ⁴Whole blood pSTAT3 stimulation. Human or cynomolgus monkey whole blood was pre-incubated with IL-21R mAbs titrations at 37° C. for 1 hr and stimulated with IL-21. Cells were fixed, permeabilized and stained for pSTAT3 and cell surface markers. ⁵Cell based KD measurement. Ramos cells (Human Burkitt's lymphoma) were incubated with a titration of IL-21R mAbs and bound antibody was detected with anti-huIgG by flow cytometry.

Binder | B cell (IgA) IC-50, exp1 [1] [pM] | B cell (IgA) IC-50, exp2 [1] [pM] | B/T co-culture (IgA) IC-50, exp1 [1] [pM] | B/T co-culture (IgA) IC-50, exp2 [1] [pM] | B/T co-culture (IgA) IC-50, exp3 [1] [pM] | B/T co-culture (IgA) IC-50, exp4 [1] [pM] | B/T co-culture (IgA) IC-50, exp5 [1] [pM] | CD8 T (IFNγ) IC-50, exp1 [1] [pM] | CD8 T (IFNγ) IC-50, exp2 [1] [pM] | hu pSTAT3 IC-50, B [1] [pM] | hu pSTAT3 IC-50, T [1] [pM] | cyno pSTAT3 IC-50, B [2] [pM] | cyno pSTAT3 IC-50, T [2] [pM] | Kd [3] [nM] | Kd [4] [nM] | Kd [5] [nM] | Kd [6] [nM]
B1 | 18 | 49 | 16 | 9 | 11 | 17 | 10 | 79 | 27 | 14 | 8 | 4 | 13 | 0.006 | 0.043 | 0.035 | 0.015
B2 | 22 | 47 | 29 | 8 | 17 | 17 | 14 | 139 | 48 | 137 | 33 | 65 | 286 | 0.026 | 0.166 | 0.078 | 0.016
B3 | 58 | 31 | 44 | 31 | 24 | 24 | 19 | 203 | 35 | 36 | 10 | 9 | 33 | 0.015 | 0.078 | 0.016 | 0.033
